Data: patent publication US20030215913A1 (published 2003)

B1: BMP-5 (ligand, UniProt P22003 317-454, looked up)
chain: AANKRKNQNRNKSSSHQDSSRMSSVGDYNTSEQKQACKKHELYVSFRDLGWQDWIIAPEGYAAFYCDGECSFPLNAHMNATNHAIVQTLVHLMFPDHVPKPCCAPTKLNAISVLYFDDSSNVILKKYRNMVVRSCGCH
B2: fas-ligand (ligand, UniProt P48023 134-281, looked up)
chain: PSPPPEKKELRKVAHLTGKSNSRSMPLEWEDTYGIVLLSGVKYKKGGLVINETGLYFVYSKVYFRGQSCNNLPLSHKVYMRNSKYPQDLVMMEGKMMSYCTTGQMWARSSYLGAVFNLTSADHLYVNVSELSLVNFEESQTFFGLYKL
notes: Negative control injected over the LP226 surface; also called negative control
B3: BMP-6 (ligand, UniProt P22004 382-513, looked up)
chain: QQSRNRSTQSQDVARVSSASDYNSSELKTACRKHELYVSFQDLGWQDWIIAPKGYAANYCDGECSFPLNAHMNATNHAIVQTLVHLMNPEYVPKPCCAPTKLNAISVLYFDDNSNVILKKYRNMVVRACGCH

Biological target: T1, LP226 (human, UniProt Q6WN34 26-429, limits assumed)
T1 construct: Secreted chordin-like protein; the cleavage site was not determined by experiment; also called LP226 polypeptide; LP polypeptide
T1 sequence: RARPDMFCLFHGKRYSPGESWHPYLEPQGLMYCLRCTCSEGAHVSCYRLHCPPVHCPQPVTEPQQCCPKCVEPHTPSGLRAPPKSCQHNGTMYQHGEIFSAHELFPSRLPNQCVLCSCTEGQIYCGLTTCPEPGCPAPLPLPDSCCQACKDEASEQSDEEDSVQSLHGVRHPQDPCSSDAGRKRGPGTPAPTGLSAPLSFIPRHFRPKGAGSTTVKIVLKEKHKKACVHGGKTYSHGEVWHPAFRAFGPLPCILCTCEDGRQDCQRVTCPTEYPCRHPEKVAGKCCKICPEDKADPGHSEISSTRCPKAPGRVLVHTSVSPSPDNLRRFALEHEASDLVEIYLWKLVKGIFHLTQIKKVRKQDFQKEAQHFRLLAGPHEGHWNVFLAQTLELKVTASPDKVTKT
Assay: BIAcore 2000 SPR, LP226 amine-coupled to CM5 chip, ligand injected
Procedure: A BIAcore 2000 instrument is used to detect real-time binding between immobilized LP226 and various TGF-beta and BMP proteins. LP226 is diluted to a concentration of […] in 10 mM sodium acetate buffer at pH 5.0. LP226 is immobilized to a CM5 sensor chip using the amine coupling method. Follistatin, containing BSA, is immobilized as a positive control.
TGF-beta and BMP proteins are diluted in HBS-EP buffer. Samples are injected over LP226 and control surfaces using the kinject method. Samples containing 5 µg/mL and 1 μg/mL of protein are injected at 30 μL/min for three minutes with a ninety second dissociation time. LP226 and control surfaces are then regenerated with glycine-hydrochloride at pH 3.0.

binding result | Binder
no binding (tested: 5 g/mL and 1 µg/mL) | B1
no binding | B2
no binding (tested: 5 g/mL and 1 µg/mL) | B3
